Experimental data: patent publication US20220403023A1 (WUXI BIOLOGICS IRELAND, published 2022)

What was measured:
PD-1.his [1] = biological target: T1, PD-1.his (Homo sapiens (Human), UniProt Q15116 25-170); assay: ELISA, protein coated at 1 µg/mL
HER3.his [2] = biological target: T2, HER3.his (Homo sapiens (Human), UniProt P21860 20-643); assay: ELISA, protein coated at 1 µg/mL
HSA. [3] = biological target: T3, HSA. (UniProt P02768 25-609); assay: ELISA, protein coated at 1 µg/mL
[4] = biological target: T4, CD47 on human red blood cells (human, UniProt Q08722 19-323); assay: FACS on human red blood cells, goat anti-human IgG-Fc PE
T4 construct: whole, on cells; also called human RBCs; hRBC
Experimental: (§1) The cells were washed twice with 180 μL 1% BSA-PBS. The secondary antibody, Goat Anti-human IgG-Fc PE was added to re-suspend cells and incubated at 4° C. in the dark for 30 min followed by washing with 180 μL 1% BSA-PBS. At the end, the cells were re-suspended in 100 μL 1% BSA-PBS, and the fluorescence intensity was measured by FACS (BD Canto II) and analyzed by FlowJo Version software. The binding EC50s were calculated by using GraphPad Prism software equation: Nonlinear regression (curve fit)—log (agonist) vs. response—Variable slope.

Factor Eight = assay: non-specific binding ELISA, protein coated 1 µg/mL, lead antibody at 10 ug/ml
Experimental: (§2) The 96-well high binding plates were coated with 14 different proteins at 1 μg/mL at 4° C. overnight and blocked with 2% BSA-PBS for 1 hr. […] Then the Goat anti-human IgG-Fc-HRP secondary antibody was added and incubated for 1 hr. The TMB peroxidase substrate solution was added and then reaction was stopped after 12 minutes using 2M HCl. All incubation steps were performed at room temperature, and the plates were washed 5 times with PBST at pH 7.4 between steps. The absorbance of testing samples was measured at 450 nm with a multiwall plate reader (SpectraMax® M5e).

FGFR.his = assay: as above
Experimental: as §2

CD147.his = assay: as above
Experimental: as §2

PD-1.his [5] = biological target: T1, PD-1.his; assay: as above
Experimental: as §2

CTLA4.his = assay: as above
Experimental: as §2

VEGFR2.his = assay: as above
Experimental: as §2

CD22.his = assay: as above
Experimental: as §2

VEGF.his = assay: as above
Experimental: as §2

CD3.his = assay: as above
Experimental: as §2

HER3.his [6] = biological target: T2, HER3.his; assay: as above
Experimental: as §2

OX40.his = assay: as above
Experimental: as §2

4-1B8.his = assay: as above
Experimental: as §2

CD40.his = assay: as above
Experimental: as §2

HSA. [7] = biological target: T3, HSA.; assay: as above
Experimental: as §2

human CD47 ECD protein [8] = biological target: T5, human CD47 ECD protein (human, UniProt Q08722 19-139, limits assumed); assay: ELISA on plate-coated human CD47 ECD (1 µg/mL), goat anti-human IgG-Fc-HRP, OD450
T5 construct: extracellular domain; The assays say only 'human CD47 ECD protein' / 'Human CD47 protein'; 55 kDa was used as molecular weight in SPR; also called human CD47 protein; W345-hPro1.ECD (sino)
Experimental: Then the Goat anti-human IgG-Fc-HRP secondary antibody was added and incubated for 1 hr. […] All incubation steps were performed at room temperature, and the plates were washed 5 times with PBST at pH 7.4 between steps.

[9] = biological target: T6, human CD47 on engineered CHO-K1 cells (human, UniProt Q08722 19-323); assay: FACS on CHO-K1 cells expressing human CD47 (CHOK1-huCD47), goat anti-human IgG-Fc PE
T6 construct: whole, on cells; also called human CD47-expressing cells
Experimental: as §1, with “Briefly, the engineered CD47-expressing cells were coated into 96-well U-bottom plates at a density of 1×10⁵ cells/well and centrifuged at 1500 rpm at 4° C. for 4 min before removing the supernatant. […] The cells” for “The cells”

human CD47 ECD protein [10] = biological target: T5, human CD47 ECD protein; assay: SPR Biacore T200, antibody captured on anti-human IgG Fc chip, human CD47 as analyte, 1:1 model
Experimental: Each antibody was captured on an anti-human IgG Fc antibody immobilized CMS sensor chip (GE). Human CD47 protein at different concentrations were injected over the sensor chip at a flow rate of 30 uL/min for an association phase of 180 s, followed by 3600 s dissociation. The chip was regenerated by 10 mM glycine (pH 1.5) after each binding cycle. The sensorgrams of blank surface and buffer channel were subtracted from the test sensorgrams. The experimental data was fitted by 1:1 model using Langmiur analysis. Molecular weight of 55 kDa was used to calculate the molar concentration of analyte antigen.

[11] = biological target: T7, cynomolgus monkey CD47 on engineered CHO-K1 cells (cynomolgus monkey, UniProt A0A5F8AK49 19-323 (rhesus entry)); assay: FACS on CHO-K1 cells expressing cynomolgus CD47 (CHOK1-cynoCD47), goat anti-human IgG-Fc PE
T7 construct: whole, on cells; also called cyno CD47 expressing cells; cynomolgus monkey CD47-expressing cells
Experimental: as §1, with “Briefly, the engineered CD47-expressing cells were coated into 96-well U-bottom plates at a density of 1×10⁵ cells/well and centrifuged at 1500 rpm at 4° C. for 4 min before removing the supernatant. […] The cells” for “The cells”

human CD47 ECD protein [12] = biological target: T5, human CD47 ECD protein; assay: competition ELISA: plate-coated human CD47 ECD (1 µg/mL), antibody titrated together with human SIRPα-His (1 µg/mL), bound SIRPα detected with anti-His-HRP
Experimental: 96-well plates were coated with human CD47 ECD at 1 μg/mL at 4° C. overnight and blocked with 2% BSA-PBS for 1 hr. […] The TMB peroxidase substrate solution was added and then reaction was stopped after 12 minutes using 2M HCl. All incubation steps were performed at room temperature, and the plates were washed with PBST between steps. The absorbance of the testing samples was measured at 450 nm with a multiwall plate reader. The competitive binding IC50s were calculated by using GraphPad Prism software equation: Nonlinear regression (curve fit)—log (antagonist) vs. response—Variable slope.

[13] = biological target: T6, human CD47 on engineered CHO-K1 cells; assay: competition FACS: CHO-K1 cells expressing human CD47, antibody titrated together with human SIRPα-His (1 µg/mL), bound SIRPα detected with anti-His-biotin and streptavidin-PE
Experimental: At the end, the cells were re-suspended in 100 μL 1% BSA-PBS, and the fluorescence intensity was measured by FACS (BD Canto II) and analyzed by FlowJo Version software. The competitive binding IC50s were calculated by using GraphPad Prism software equation: Nonlinear regression (curve fit)—log (antagonist) vs. response—Variable slope.

T1 sequence (Q15116 25-170 limits assumed): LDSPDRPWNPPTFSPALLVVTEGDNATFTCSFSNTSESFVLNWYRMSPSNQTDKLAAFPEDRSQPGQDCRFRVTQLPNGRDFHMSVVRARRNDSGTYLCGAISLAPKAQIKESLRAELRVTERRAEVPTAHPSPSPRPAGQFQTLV
OX40.his, sequence (P43489 29-214): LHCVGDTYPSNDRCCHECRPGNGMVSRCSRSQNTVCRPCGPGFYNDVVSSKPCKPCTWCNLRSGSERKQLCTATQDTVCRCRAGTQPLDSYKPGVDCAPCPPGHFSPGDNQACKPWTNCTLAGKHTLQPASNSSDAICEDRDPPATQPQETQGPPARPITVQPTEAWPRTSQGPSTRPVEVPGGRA
VEGF.his, sequence (P15692 whole entry): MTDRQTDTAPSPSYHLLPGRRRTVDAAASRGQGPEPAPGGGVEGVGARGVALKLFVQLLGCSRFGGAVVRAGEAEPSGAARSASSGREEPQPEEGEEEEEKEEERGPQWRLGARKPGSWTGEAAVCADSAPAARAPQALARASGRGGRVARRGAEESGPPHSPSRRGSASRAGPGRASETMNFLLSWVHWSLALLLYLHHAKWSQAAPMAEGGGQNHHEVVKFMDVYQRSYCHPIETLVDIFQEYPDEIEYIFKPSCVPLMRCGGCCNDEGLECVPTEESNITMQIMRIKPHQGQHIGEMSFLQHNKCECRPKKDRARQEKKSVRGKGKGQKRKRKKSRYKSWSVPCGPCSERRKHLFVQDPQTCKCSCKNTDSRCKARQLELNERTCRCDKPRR
4-1B8.his, sequence (Q07011 24-186): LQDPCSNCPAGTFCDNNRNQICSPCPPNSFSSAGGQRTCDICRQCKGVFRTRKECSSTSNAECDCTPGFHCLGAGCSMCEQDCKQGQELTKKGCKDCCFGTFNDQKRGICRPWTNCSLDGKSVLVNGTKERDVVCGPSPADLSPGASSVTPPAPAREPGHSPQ
CD40.his, sequence (P25942 21-193): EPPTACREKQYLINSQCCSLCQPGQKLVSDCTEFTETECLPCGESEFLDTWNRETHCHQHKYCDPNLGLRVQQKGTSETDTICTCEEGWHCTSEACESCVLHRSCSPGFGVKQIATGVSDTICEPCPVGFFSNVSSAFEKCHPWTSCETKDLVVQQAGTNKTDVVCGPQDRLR
VEGFR2.his, sequence (P35968 20-764): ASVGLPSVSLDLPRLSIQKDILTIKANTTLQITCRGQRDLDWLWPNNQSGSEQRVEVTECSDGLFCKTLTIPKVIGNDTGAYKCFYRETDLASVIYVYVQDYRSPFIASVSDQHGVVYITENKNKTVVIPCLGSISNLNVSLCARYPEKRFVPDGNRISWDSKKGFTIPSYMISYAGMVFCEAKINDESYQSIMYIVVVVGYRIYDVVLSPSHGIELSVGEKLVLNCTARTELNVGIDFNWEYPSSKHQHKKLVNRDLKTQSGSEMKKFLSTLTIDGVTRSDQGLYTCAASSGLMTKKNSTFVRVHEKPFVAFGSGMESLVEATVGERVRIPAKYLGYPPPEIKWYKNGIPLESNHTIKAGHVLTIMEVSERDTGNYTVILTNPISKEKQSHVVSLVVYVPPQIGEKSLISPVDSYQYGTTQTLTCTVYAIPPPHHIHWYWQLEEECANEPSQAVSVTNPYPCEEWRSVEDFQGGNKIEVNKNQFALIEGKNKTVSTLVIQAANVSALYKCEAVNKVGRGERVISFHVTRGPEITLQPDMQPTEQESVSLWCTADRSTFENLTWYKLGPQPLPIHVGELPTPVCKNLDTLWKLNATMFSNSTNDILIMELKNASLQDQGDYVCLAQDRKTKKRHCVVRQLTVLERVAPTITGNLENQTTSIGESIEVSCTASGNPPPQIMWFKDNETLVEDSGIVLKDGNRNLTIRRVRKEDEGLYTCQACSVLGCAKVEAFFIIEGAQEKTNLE
CTLA4.his, sequence (P16410 36-161): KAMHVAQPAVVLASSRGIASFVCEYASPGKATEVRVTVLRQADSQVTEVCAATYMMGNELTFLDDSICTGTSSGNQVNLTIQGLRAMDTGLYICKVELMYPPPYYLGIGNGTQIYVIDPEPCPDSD

B1: W3455-4.9.9-uIgG4.SPL (antibody, V domains shown)
VH: EVQLLESGGGLVQPGGSLRLSCAASGFTFSNFAMSWVRQAPGKGLEWVSTISASGGRTFYADSVKGRITISRDNSKNTLFLQMNGLRAEDTAVYYCAKEGSFGEGVDPWGQGTLVTVSS
VL: SYEMTQPPSVSVSPGQTARITCSGDALPKKYAYWYQQKSGQAPVLVIYEDNKRPSGIPERFSGSSSGTMATLTISGAQVEDEADYYCYSTDISGNHWVFGGGTELTVLG
notes: Fully human anti-CD47 antibody; also called W3455 antibody; WBP3455-4.9.9-uIgG4.SPL
B1: no binding (tested: 10 ug/ml) (PD-1.his [1]); no binding (tested: 10 ug/ml) (HER3.his [2]); no binding (tested: 10 ug/ml) (HSA. [3]). For the same binder, the EC50 [4] was 76.7 nM, the ELISA-OD450 (Factor Eight) was 0.0498 and the ELISA-OD450 (FGFR.his) was 0.138. It also gave an ELISA-OD450 (CD147.his) of 0.0463, an ELISA-OD450 (PD-1.his [5]) of 0.227 and an ELISA-OD450 (CTLA4.his) of 0.0573. The ELISA-OD450 (VEGFR2.his) was 0.0452, the ELISA-OD450 (CD22.his) was 0.0478 and the ELISA-OD450 (VEGF.his) was 0.0475. The ELISA-OD450 (CD3.his) was 0.0527, the ELISA-OD450 (HER3.his [6]) was 0.0462 and the ELISA-OD450 (OX40.his) was 0.0487. For the same binder, the ELISA-OD450 (4-1B8.his) was 0.0551, the ELISA-OD450 (CD40.his) was 0.209 and the ELISA-OD450 (HSA. [7]) was 0.324. The EC50 (human CD47 ECD protein [8]) was 0.038 nM, the EC50 [9] was 2.99 nM and the Kd (human CD47 ECD protein [10]) was 0.0223 nM. For the same binder, the koff (human CD47 ECD protein [10]) was 2.34e-05 s⁻¹, the kon (human CD47 ECD protein [10]) was 1.05e+06 M⁻¹ s⁻¹ and the EC50 [11] was 2.71 nM. For the same binder, the IC50 (human CD47 ECD protein [12]) was 3.21 nM and the IC50 [13] was 20.1 nM.
